Data set [1] is described as follows: protein stability of Hfq65-K3 mutants. The data set is classed as physicochemical, E. coli.
Data set [2] has as its system RNA molecular beacon and Target RNA. Put plainly: RNA annealing kinetics (molecular beacon and Target RNAs), stopped-flow fluorescence. In kind it is biochemical. The conditions noted are these: 50 nM molecular beacon, 100 nM Target, Hfq65 variants, TNK buffer, 30 °C. As to the method: (§1) Figure 2. CTD and RNA occupy the same rim binding site. […] The CTD linker is shown in purple, the acidic tip in red and the N-terminal FITC as a yellow star. Hfq core is shown in cyan, with basic rim patches in dark blue. […] (C) Reaction scheme for annealing an RNA molecular beacon to a target RNA (open bar) ([Hopkins et al., 2011]; [Panja et al., 2015]). (D) Progress curves for annealing 50 nM molecular beacon and 100 nM Target by 50 nM Hfq65 hexamer at 30°C, measured by stopped-flow fluorescence. See Figure 2—figure supplement 3 for further data. (E) Contribution of core residues to CTD binding. Interaction energy (Expected Energetic Contribution; EEC) in silico for a core residue in the Rosetta models (solid symbols and solid line; adjusted R^2 = 0.77) or the average annealing rates for Target and Target-A18 relative to Hfq65 (open symbols and dashed line; adjusted R^2 = 0.94) versus experimental CTD binding energy (∆∆G°) for each Hfq65 variant. The binding energy, ∆∆G° = –RTln(Kd^MUT/Kd), reflects the perturbation to CTD binding by a mutation in Hfq65. The interaction energy in silico or EEC is defined as the average energy of a tail–core interaction multiplied by the average number of tail–core interactions per model (Figure 1B, top and Equation 3). The relative annealing rate for Hfq65 variants, krel = kobs^MUT/kobs^WT, is <1 if the mutated residue is important for RNA annealing. Figure 2—figure supplement 1. SDS-PAGE of purified Hfq variants. […] Annealing of 100 nM Target RNA to 50 nM beacon RNA by Hfq65 and Hfq65 variants was measured by stopped flow fluorescence at 30°C in 1 × TNK buffer. […] The change in fluorescence emission intensity was normalized to the maximum fluorescence within an experiment. […]
To determine how much core residues that bind the CTD contribute to Hfq’s RNA annealing activity, we compared the effect of rim mutations on the rate of base pairing between an RNA molecular beacon and the 16 nt Target RNA by stopped-flow fluorescence spectroscopy (Figure 2C) ([Hopkins et al., 2011]). […]

Data set [3] in a line: SDS-PAGE oligomerization of purified Hfq variants. The data set is classed as physicochemical, E. coli. The following applies: 4–20% SDS-PAGE, ~2.8 µg protein, 2% SDS, boiled. Here is the method:
as §1, with “variants. WT Hfq assembles into hexamers and dodecamers that are stable to SDS-PAGE, which can be used to evaluate the oligomerization of Hfq variants. Purified Hfq protein (~2.8 µg) was separated on a 4–20% SDS-PAGE gel and stained with Coomassie blue (lanes 2–6). Samples were prepared in 2% SDS and boiled before loading. Lane 1, Protein standards (10 µL All Blue Precision Plus, […]).” for “variants.”

Data set [4] concerns the target T1, E. coli Hfq65 (Hfq core; truncated variant lacking the CTD) (E. coli, UniProt P0A6X3 1-65).
T1 construct: Untagged; Forms a homohexameric ring; also called core Hfq; Hfq65 core
The data set is described as follows: fluorescence polarisation; 45 nM FITC-labelled peptide titrated with Hfq65 or variant (0–100 µM Hfq monomer), 50 mM Tris·HCl pH 7.5 (low salt), 30 °C, duplicate, single-site isotherm; Kd in Hfq monomer. The conditions noted are these: both partners purified.

The target of data set [5] is Hfq65 (Hfq core, CTD deleted) (Escherichia coli, UniProt P0A6X3 1-65). The data set is described as follows: competition; displaces CTD-FITC peptide; strong; IC50 only in figure; Anisotropy: 10 mM Tris-HCl pH 7.5, 50 mM NaCl, 50 mM KCl, 30 C; CTD-FITC competition: 50 mM Tris-HCl pH 7.5, 30 C; pUC19 EMSA: 40 mM Tris-HCl pH 7.5, 0.14 mM EDTA, 35 mM NH4Cl, 3.7% glycerol, 25 C (competition legend 30 C). The following applies: protein: recombinant, tags: untagged, chain copies: 6. In general terms: A gel shift assay detects complexes by their altered migration in electrophoresis.

For another data set, the target named is Hfq102 (wild-type Hfq) (Escherichia coli, UniProt P0A6X3 1-102). The data set is described as follows: competition; vs pUC19 EMSA; strongest, saturates at 1:1; Anisotropy: 10 mM Tris-HCl pH 7.5, 50 mM NaCl, 50 mM KCl, 30 C; CTD-FITC competition: 50 mM Tris-HCl pH 7.5, 30 C; pUC19 EMSA: 40 mM Tris-HCl pH 7.5, 0.14 mM EDTA, 35 mM NH4Cl, 3.7% glycerol, 25 C (competition legend 30 C). The following applies: protein: recombinant, tags: untagged, chain copies: 6.

The subject of another data set is Hfq102·pUC19 complex. Put plainly: RNA or DNA competition of Hfq102·pUC19 complexes, EMSA. The data set is classed as binding, E. coli. Here is the method: Figure 5. CTD and RNAs inhibit DNA binding to Hfq by obstructing the basic rim patch. (A, B) Agarose gel electrophoretic mobility shift assays of 0–3.3 μM hexamer Hfq102, Hfq102-R16A, Hfq65 or Hfq65-R16A binding to 6 nM linear pUC19 DNA ([…]) at 25°C, stained with SYBR Gold. Hfq65 forms large aggregates that fail to enter the gel (Figure 5—figure supplement 1). (C, D) Line densitometry of DNA migration in (A, B). Free pUC19 (no Hfq) is shown in light grey. Samples with increasing Hfq concentration are shown in darker shades of grey. (E, F) RNA competition. Complexes of 0.5 μM Hfq102 hexamer and 6 nM linear pUC19 (black) were challenged by 0–2 μM RNA or DNA competitor (darker shades of red). pUC19 control in the absence of Hfq is shown in light grey. […] Digestion of Hfq65 and Hfq65-R16A with Proteinase K liberates DNA from Hfq•DNA aggregates, allowing it to be detected (lanes 9 and 10). […] The small proportion of Hfq65·DNA complexes remaining in the supernatant were only detected in the gel after treatment with salt. […]
Samples (10 µL) containing linear pUC19 (0.145 nmol bp), 0–3.333 µM Hfq hexamer, in 40 mM Tris-HCl pH 7.5, 0.14 mM EDTA, 35 mM NH4Cl, 3.7% (v/v) glycerol, 0.05% (w/v) bromophenol blue were incubated at 25°C for 30 min. […] The fluorescence intensity was measured on a line from the bottom edge of the well through the middle of the lane to visualize the migration of pUC19. […]

*: point of attachment. FITC = O=C1OC2(c3ccc(O)cc3Oc3cc(O)ccc32)c2ccc(NC(=S)*)cc21; Ahx = NCCCCCC(=O)O

Take Hfq65-K3Q: the “formation of stable protein” value in data set [1] was “neither Hfq65-K3S nor Hfq65-K3Q formed stable proteins”. In the case of Hfq65-K3S, the “formation of stable protein” value in data set [1] is “neither Hfq65-K3S nor Hfq65-K3Q formed stable proteins”. For Hfq65-Q35A, the “observed annealing rate of Hfq65 rim mutants” value in data set [2] was “relatively unaffected”.

For “Hfq102-R16A: rim mutation R16A of full-length Hfq (printed R16A in b39)”, in data set [3], the “oligomeric state on SDS-PAGE” value is “only forms hexamer (blue dot) and monomer”.

B1: BsCTD-FITC (B. subtilis Hfq CTD peptide) (peptide)
peptide: {FITC-Ahx}-QLELE-OH
SMILES: CC(C)C[C@H](NC(=O)[C@H](CCC(=O)O)NC(=O)[C@H](CC(C)C)NC(=O)[C@H](CCC(N)=O)NC(=O)CCCCCNC(=S)Nc1ccc2c(c1)C(=O)OC21c2ccc(O)cc2Oc2cc(O)ccc21)C(=O)N[C@@H](CCC(=O)O)C(=O)O
notes: Hfq, Bacillus subtilis, C-terminal end of the CTD; also called BsCTD-FITC peptide
As for B1, the Kd (as a rule, the free concentration of one partner at which half of the binding sites on the other are occupied at equilibrium, for simple one-to-one binding) in data set [4] was determined as 8.7 µM.

B2: RprA sRNA (structured_RNA)
RNA: GGGACGGUUAUAAAUCAACAUAUUGAUUUAUAAGCAUGGAAAUCCCCUGAGUGAAACAACGAAUUGCUGUGUGUAGUCUUUGCCCAUCUCCCACGAUGGGCUUUUUUUU
B2: the binding result in data set [5] was “binds”.

B3: DsrA sRNA (structured_RNA)
RNA: GGGAACACAUCAGAUUUCCUGGUGUAACGAAUUUUUUAAGUGCUUCUUGCUUAAGCAAGUUUCAUCCCGACCCCCUCAGGGUCGGGAUUUUUUU
Consider B3, for which the binding result in data set [5] was “binds”.

B4: RyhB sRNA (structured_RNA)
RNA: GGGCGAUCAGGAAGACCCUCGAGGAGAACCUGAAAGCACGACAUUGCUCACAUUGCUUCCAGUAUUACUUAGCCAGCCGGGUGCUGGCUUUUU
As to B4, the binding result (with Hfq102 (wild-type Hfq); in data set [5]) was “binds” throughout.

B5: RyhB: sRNA, transcribed in vitro (nucleic acid)
chain: GGGCGAUCAGGAAGACCCUCGAGGAGAACCUGAAAGCACGACAUUGCUCACAUUGCUUCCAGUAUUACUUAGCCAGCCGGGUGCUGGCUUUUU
modifications: unmodified RNA
notes: sRNA, transcribed in vitro
As to B5, the “competition against pUC19 DNA for binding to Hfq102” value with Hfq102·pUC19 complex is given as “strongest competitors”.

B6: ChiX sRNA (structured_RNA)
RNA: GGGACACCGUCGCUUAAAGUGACGGCAUAAUAAUAAAAAAAUGAAAUUCCUCUUUGACGGGCCAAUAGCGAUAUUGGCCAUUUUUUU
In the case of B6, the binding result (with Hfq102 (wild-type Hfq) (label: 32P in annealing EMSA); in data set [5] (label: 32P in annealing EMSA)) was “binds” each time.

B7: ChiX: Class II sRNA, transcribed in vitro (nucleic acid)
chain: GGGACACCGUCGCUUAAAGUGACGGCAUAAUAAUAAAAAAAUGAAAUUCCUCUUUGACGGGCCAAUAGCGAUAUUGGCCAUUUUUUU
modifications: unmodified RNA
notes: Class II sRNA, transcribed in vitro
As for B7, the “competition against pUC19 DNA for binding to Hfq102” value with Hfq102·pUC19 complex is listed as “strongest competitors”.

(Values after article PMC5606850, “Acidic C-terminal domains autoregulate the RNA chaperone Hfq” (eLife, 2017).)
